Reference: article PMC6521605, “Structural insights into nanoRNA degradation by human Rexo2” (RNA, 2019)
Substitutions are numbered along the chain they refer to. Names may count otherwise.

Legend:
[1] = target: T1, Rexo2 H194A H194A (Homo sapiens) (UniProt Q9Y3B8); test: fluorescence polarization; conditions: 50 mM EDTA, Hill coefficient 2.3, FP: 10 nM Cy3-oligonucleotide, 50 mM Tris-HCl pH 7.5, 50 mM NaCl, 15 min at 25 C, crystals: 0.2 M ammonium citrate dibasic, 20% PEG 3350, pH 5.1 …
T1 sequence: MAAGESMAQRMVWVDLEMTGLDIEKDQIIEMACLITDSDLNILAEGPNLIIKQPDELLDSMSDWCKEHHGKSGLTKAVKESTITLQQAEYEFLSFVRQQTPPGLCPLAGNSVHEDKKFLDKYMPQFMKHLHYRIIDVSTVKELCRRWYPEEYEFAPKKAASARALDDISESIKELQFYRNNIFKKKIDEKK

Rexo2 H194A [2] = target: T2, Rexo2 H194A (Homo sapiens, UniProt Q9Y3B8 33-223, H194A); test: fluorescence polarization; 50 mM EDTA; FP: 10 nM Cy3-oligonucleotide, 50 mM Tris-HCl pH 7.5, 50 mM NaCl, 50 mM EDTA, 15 min at 25 C; crystals: 0.2 M ammonium citrate dibasic, 20% PEG 3350, pH 5.1, room temperature; conditions: protein: recombinant; tags: N-terminal 6xHis removed by thrombin; chain copies: 2; label: 5'-Cy3; single strand
T2 sequence: T1 sequence

[3] = target: the molecule itself; test: SEC-MALS; purified His-tag-free Rexo2 (residues 33-223); MW of ~44 kDa against 22.436 kDa calculated for a protomer; conditions not given
Rexo2 wild type = target: T3, Rexo2 wild type (Homo sapiens, UniProt Q9Y3B8 33-223); test: X-ray crystallography; no Mg2+ added, two endogenous Mg2+ at partial occupancy; pH 5.1; FP: 10 nM Cy3-oligonucleotide, 50 mM Tris-HCl pH 7.5, 50 mM NaCl, 50 mM EDTA, 15 min at 25 C; crystals: 0.2 M ammonium citrate dibasic, 20% PEG 3350, pH 5.1, room temperature; conditions: protein: recombinant; tags: N-terminal 6xHis removed by thrombin; chain copies: 2; single strand
T3 sequence: T1 sequence with A162H

Rexo2 D199A = target: T4, Rexo2 D199A (Homo sapiens, UniProt Q9Y3B8 33-223, D199A); test: X-ray crystallography; 2 Mg2+ in active site; pH 5.1; FP: 10 nM Cy3-oligonucleotide, 50 mM Tris-HCl pH 7.5, 50 mM NaCl, 50 mM EDTA, 15 min at 25 C; crystals: 0.2 M ammonium citrate dibasic, 20% PEG 3350, pH 5.1, room temperature; conditions: protein: recombinant; tags: N-terminal 6xHis removed by thrombin; chain copies: 2; single strand
T4 sequence: T1 sequence with A162H, D167A

Rexo2 H194A [4] = target: T2, Rexo2 H194A; test: fluorescence polarization; 50 mM EDTA; Hill coefficient 1.4; FP: 10 nM Cy3-oligonucleotide, 50 mM Tris-HCl pH 7.5, 50 mM NaCl, 50 mM EDTA, 15 min at 25 C; crystals: 0.2 M ammonium citrate dibasic, 20% PEG 3350, pH 5.1, room temperature; conditions: protein: recombinant; tags: N-terminal 6xHis removed by thrombin; chain copies: 2; label: 5'-Cy3; single strand
Rexo2 H194A [5] = target: T2, Rexo2 H194A; test: fluorescence polarization; 50 mM EDTA; Hill coefficient 3.5; Results sentence calls it 12-nt, legend and Methods 11-nt; FP: 10 nM Cy3-oligonucleotide, 50 mM Tris-HCl pH 7.5, 50 mM NaCl, 50 mM EDTA, 15 min at 25 C; crystals: 0.2 M ammonium citrate dibasic, 20% PEG 3350, pH 5.1, room temperature; conditions: protein: recombinant; tags: N-terminal 6xHis removed by thrombin; chain copies: 2; label: 5'-Cy3; single strand

2-nt RNA A2
Kd [1]: 24.4 nM

B1: 12-nt DNA T12 (ssDNA)
DNA: TTTTTTTTTTTT
Kd (Rexo2 H194A [2]): 52.2 nM

B2: human RNA exoribonuclease 2 (Rexo2), wild type, residues 33-223 (enzyme, UniProt Q9Y3B8 33-223, looked up)
chain: T1 sequence with A162H
notes: His tag removed with Thrombin (pET28a, NdeI/SalI); a few vector residues may be left at the N-terminus after cleavage (surmise); Calculated MW of a protomer 22.436 kDa; also called wild-type Rexo2; small fragment nuclease; source: E. coli BL21-CodonPlus (DE3) RIPL, purified (HisTrap HP, Thrombin, HisTrap flow-through, Superdex 75); not shown: His6, N-terminal, cleaved
stoichiometry N [3]: 2

B3: human Rexo2-D199A mutant, residues 33-223 (enzyme, UniProt Q9Y3B8 33-223, looked up)
chain: T1 sequence with A162H, D167A
notes: Made by site-directed mutagenesis from the wild-type construct; PDB 6J7Y holds the wild-type parent; source: E. coli BL21-CodonPlus (DE3) RIPL, purified (HisTrap HP, Thrombin, HisTrap flow-through, Superdex 75); not shown: His6, N-terminal, cleaved
stoichiometry N [3]: 2

B4: human Rexo2-H194A mutant, residues 33-223 (enzyme, UniProt Q9Y3B8 33-223, looked up)
chain: T1 sequence
notes: human Rexo2, residues 33-223, general base residue H194 replaced by Ala; Made by site-directed mutagenesis from the wild-type construct; PDB 6J7Y holds the wild-type parent; also called H194A Rexo2 mutant; source: E. coli BL21-CodonPlus (DE3) RIPL, purified (HisTrap HP, Thrombin, HisTrap flow-through, Superdex 75); not shown: His6, N-terminal, cleaved
stoichiometry N [3]: 2

B5: T5 DNA (crystal) (ssDNA)
DNA: TTTTT
binding result (Rexo2 wild type): binds

B6: U12 RNA (ssRNA)
RNA: UUUUUUUUUUUU
binding result (Rexo2 D199A): binds

B7: T10 DNA (crystal) (ssDNA)
DNA: TTTTTTTTTT
binding result (Rexo2 D199A): binds

B8: 5-nt DNA T5 (Cy3) (ssDNA)
DNA: TTTTT
Kd (Rexo2 H194A [2]): 51.8 nM

B9: 5-nt RNA A5 (ssRNA)
RNA: AAAAA
Kd (Rexo2 H194A [4]): 52.1 nM

B10: 11-nt RNA (ssRNA)
RNA: AGCGCAGUACC
Kd (Rexo2 H194A [5]): 44.3 nM

B11: 3-nt DNA T3 (ssDNA)
DNA: TTT
Kd (Rexo2 H194A [2]): 29.9 nM
